{
  "source": "patent US10894091B2",
  "about": "“Linker units and molecular constructs comprising the same” (priority 2017, dated 2021)",
  "molecules": {"B1": {"name": "mutated teplizumab: scFv of teplizumab with CDR3 VH cysteine substituted by serine, SEQ ID NO: 21 (protein)", "scFv": "QVQLVQSGGGVVQPGRSLRLSCKASGYTFTRYTMHWVRQAPGKGLEWIGYINPSRGYTNYNQKVKDRFTISRDNSKNTAFLQMDSLRPEDTGVYFCARYYDDHYSLDYWGQGTPVTVSSGSTSGSGKPGSGEGSTKGDIQMTQSPSSLSASVGDRVTITCSASSSVSYMNWYQQTPGKAPKRWIYDTSKLASGVPSRFSGSGSGTDYTFTISSLQPEDIATYYCQQWSSNPFTFGQGTKLQITRGGGGSGGGGSC"}, "B2": {"name": "DBCO-conjugated scFv specific for CD3: mutated teplizumab scFv conjugated at C-terminal cysteine with Mal-PEG5-DBCO (conjugate)", "scFv": "QVQLVQSGGGVVQPGRSLRLSCKASGYTFTRYTMHWVRQAPGKGLEWIGYINPSRGYTNYNQKVKDRFTISRDNSKNTAFLQMDSLRPEDTGVYFCARYYDDHYSLDYWGQGTPVTVSSGSTSGSGKPGSGEGSTKGDIQMTQSPSSLSASVGDRVTITCSASSSVSYMNWYQQTPGKAPKRWIYDTSKLASGVPSRFSGSGSGTDYTFTISSLQPEDIATYYCQQWSSNPFTFGQGTKLQITRGGGGSGGGGSC"}},
  "key": {"[1]": {"molecular_target": "T1, human CCK8-type B receptor molecules on Panc-1 tumor cell line (Homo sapiens, UniProt P32239)", "T1 construct": "human CCK8-type B receptor molecules on Panc-1 tumor cell line; endogenous in cells; host or cells: Panc-1 pancreatic carcinoma cell line", "T1 sequence (P32239 1-447)": "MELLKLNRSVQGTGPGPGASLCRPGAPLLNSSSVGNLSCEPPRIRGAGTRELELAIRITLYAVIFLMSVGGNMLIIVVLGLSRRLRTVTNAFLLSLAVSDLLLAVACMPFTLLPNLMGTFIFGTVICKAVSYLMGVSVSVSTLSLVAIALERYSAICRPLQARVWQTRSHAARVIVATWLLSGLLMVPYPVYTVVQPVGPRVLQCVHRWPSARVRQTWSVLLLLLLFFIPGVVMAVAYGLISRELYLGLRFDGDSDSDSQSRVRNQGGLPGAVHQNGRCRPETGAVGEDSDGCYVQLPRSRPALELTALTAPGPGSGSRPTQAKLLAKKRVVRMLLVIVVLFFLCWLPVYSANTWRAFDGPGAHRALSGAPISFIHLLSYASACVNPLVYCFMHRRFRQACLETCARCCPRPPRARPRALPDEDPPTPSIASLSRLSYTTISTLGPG", "assay": "Staining analysis (FACS) of binding of CCK8 peptide to CCK-type B receptor-expressing tumor cell line", "format": "cell-based", "conditions": "150 μg/ml CCK8-FITC reaction mixture, on ice 30 minutes, FIG. 24", "procedure": "The CCK8 peptide molecule was analyzed for its ability to bind to human CCK8-type B receptor molecules on Panc-1 tumor cell line. Panc-1 was established from a pancreatic carcinoma, which was extracted via pancreatico-duodenectomy specimen from an individual. Malignancy of this cell line was verified via in vitro and in vivo assays. Prior to staining, the Cys-containing CCK8 peptide was conjugated with maleimide-FITC to produce a FITC-labeled CCK8 peptide as a detective CCK8 molecule with FITC. The assay was then performed by incubating 2×10^6 Panc-1 cells with 150 μg/ml of the reaction mixture of CCK8-FITC molecule in PBS, with 1 FBS and 1% sodium azide on ice for 30 minutes in the dark. The staining of maleimide-FITC alone was used a negative control. The staining of cells was analyzed by FACS (FACSCanto II; BD Biosciences). The x-axis of histogram is the fluorescence intensity. In FIG. 24, the dark area represents the background of fluorescence distribution of Panc-1 cells, the dashed line is the fluorescence distribution of Panc-1 cells stained maleimide-FITC and the dark line is the fluorescence distribution of Panc-1 cells stained CCK8-FITC."}, "[2]": {"molecular_target": "T2, human CD3 on Jurkat T cell line (Homo sapiens, UniProt P07766)", "T2 construct": "human T lymphocyte cell which express the T cell receptor (TcR)/CD3 complexes on the cell surface; endogenous in cells; host or cells: Jurkat T cell line", "T2 sequence (P07766 23-207)": "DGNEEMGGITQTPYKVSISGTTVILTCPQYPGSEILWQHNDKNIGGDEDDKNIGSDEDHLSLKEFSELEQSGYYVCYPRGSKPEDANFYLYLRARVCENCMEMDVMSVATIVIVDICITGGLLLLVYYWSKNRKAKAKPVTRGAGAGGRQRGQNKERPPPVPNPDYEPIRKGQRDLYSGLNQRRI", "T2 sequence (P09693 23-182 partner)": "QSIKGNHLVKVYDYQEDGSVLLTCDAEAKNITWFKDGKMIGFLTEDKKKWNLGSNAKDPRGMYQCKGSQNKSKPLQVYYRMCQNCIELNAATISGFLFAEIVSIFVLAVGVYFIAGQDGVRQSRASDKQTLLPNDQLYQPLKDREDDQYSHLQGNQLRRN", "T2 sequence (P04234 22-171 partner)": "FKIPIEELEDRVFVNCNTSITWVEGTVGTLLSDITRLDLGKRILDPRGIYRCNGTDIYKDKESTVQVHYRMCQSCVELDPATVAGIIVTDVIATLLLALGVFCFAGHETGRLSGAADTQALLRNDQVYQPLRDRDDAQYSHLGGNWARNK", "T2 sequence (P20963 22-164 partner)": "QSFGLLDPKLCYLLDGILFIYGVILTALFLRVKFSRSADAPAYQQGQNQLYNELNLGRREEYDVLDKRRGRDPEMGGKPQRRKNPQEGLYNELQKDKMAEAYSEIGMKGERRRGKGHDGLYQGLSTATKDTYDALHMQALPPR", "T2 sequence (P01848 whole entry partner)": "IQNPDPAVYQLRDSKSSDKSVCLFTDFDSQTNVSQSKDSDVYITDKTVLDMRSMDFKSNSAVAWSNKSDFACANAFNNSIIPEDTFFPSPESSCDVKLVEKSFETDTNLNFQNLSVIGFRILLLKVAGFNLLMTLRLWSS", "T2 sequence (P01850 whole entry partner)": "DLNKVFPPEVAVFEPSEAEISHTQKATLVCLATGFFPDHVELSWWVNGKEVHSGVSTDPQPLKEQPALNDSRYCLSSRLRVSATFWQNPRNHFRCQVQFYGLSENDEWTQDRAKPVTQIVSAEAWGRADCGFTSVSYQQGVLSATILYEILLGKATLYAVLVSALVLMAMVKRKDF", "assay": "Staining analysis (FACS) of binding of anti-CD3 scFv to T cells", "format": "cell-based", "procedure": "The ability of the mutated teplizumab to bind to human T lymphocytes, which express CD3 was studied with Jurkat T cell line. The mutated teplizumab was analyzed for their ability to bind to human CD3 molecules on Jurkat T cell line. Jurkat cells are immortalized line of human T lymphocyte cell which express the T cell receptor (TcR)/CD3 complexes on the cell surface.\nThe assay was performed by incubating 2×10^6 Jurkat T cells with 0.1 and 1 μg/ml of the scFv in PBS with 1 FBS and 0.1% sodium azide on ice for 30 minutes. Cells were washed and incubated with FITC-conjugated Protein L (ACROBiosystems Inc., Newark, USA), diluted 1:200 in PBS/FBS, at 4° C. for 30 minutes in the dark. Protein L-FITC and FITC-conjugated rabbit anti-mouse IgG.Fc (AbD Serotec) were used as secondary antibodies. The staining of secondary antibodies alone were as negative controls. OKT3, a mouse monoclonal antibody specific for human CD3, was used as the positive control. The staining of cells was analyzed by FACS (FACSCanto II; BD Biosciences). The x-axis of histogram is the fluorescence intensity.\nThe purity of DBCO-conjugated scFvs specific for CD3 was identified through Coomassie staining of 12% SDS-PAGE (data not shown)."}, "[3]": {"conditions": "flow cytometric analysis, FIG. 23C"}},
  "note": "maleimide‑FITC = FITC conjugated through maleimide to the Cys of the Cys-containing CCK8 peptide",
  "data": [
    {"molecule": "FITC-labeled CCK8 peptide (Ac-C(maleimide‑FITC)GGGGSDYMGWMDF-NH2; ends and bridges not checked)", "values": [
      {"measurement": "binding to Panc-1 cells", "setting": "[1]", "value": "bound to Panc-1 cells"}
    ]},
    {"molecule": "B1", "values": [
      {"measurement": "binding to T cells", "setting": "[2]; Jurkat T cells, 0.1 and 1 μg/ml scFv, on ice 30 minutes, FITC-conjugated Protein L, FACS, FIG. 23B", "value": "bound to T cells"},
      {"measurement": "binding to T cells", "setting": "[2]; [3]", "value": "bound to T cells"}
    ]},
    {"molecule": "B2", "values": [
      {"measurement": "binding to T cells", "setting": "[2]; [3]", "value": "bound to T cells"}
    ]}
  ]
}
